Columns and labels:
[1] = molecular target: human neonatal Fc-receptor (FcRn) (human) (UniProt P55899); assay: FcRn affinity chromatography, symmetrically modified anti-HER2 antibody
[2] = molecular target: human neonatal Fc-receptor (FcRn) (human) (UniProt P55899); assay: FcRn affinity chromatography

Row | Substance | retention time [1] [min] | RT [min] (retention time on the FcRn affinity column) [2] | further results
1 | anti-HER2 antibody, K290H (symmetric) | 46.2 |  | 
2 | IgG1 Fc-region with L234A/L235A/P329G and Y436A (symmetric) |  |  | FcRn-affinity column retention time [2]: 41.3 min
3 | anti-HER2 antibody, N434H (symmetric) | 52 |  | 
4 | anti-HER2 antibody, K288E (symmetric) | 45.2 |  | 
5 | bispecific antibody (knobs-into-holes), first chain with I253A/H310A/H435A and second chain with H310A |  | 0 | 
6 | anti-HER2 antibody, L309H (symmetric) | 45.5 |  | 

Now from value to substance, other results behind:

Row | retention time [1] [min] | RT [min] (retention time on the FcRn affinity column) [2] | Substance | further results
7 | 45.6 |  | anti-HER2 antibody, E258H (symmetric) | 
8 |  | 0 | bispecific antibody (knobs-into-holes), first chain with I253A/H310A/H435A and second chain with I253A/H310A/H435A | 
9 | 41.4 |  | anti-HER2 antibody, R255D (symmetric) | 
10 |  | 0 | bispecific antibody (knobs-into-holes), first chain with I253A/H310A/H435A and second chain with H435A | 

Reference: patent US20190127457A1
